The Kd is the constant that tells how readily two partners part at equilibrium. Usually stoichiometry N stands for the number of molecules, sites or subunits per partner or assembly.

Data set [1] has as its system H2A-H2B heterodimer;yNap1 (Xenopus laevis;Saccharomyces cerevisiae). Nature of the data set: EMSA. (A gel shift assay detects complexes by their altered migration in electrophoresis.)
In data set [2] the test system is H2A-H2B heterodimer (Xenopus laevis). Nature of the data set: EMSA.
In data set [3] the target is yNap1_IF1 (G225D, S237D, T244D, D246R) (Saccharomyces cerevisiae) (UniProt P25293). Nature of the data set: native MS.
Data set [4] shares this target. Description: native MS. This is another data set of the same source.

Several values for one entry are separate records, joined by “and”; a condition that tells them apart may be missing. Equal values may be shown once. Read-outs that look alike come from different tables or passages of the source.

Consider “(H3-H4)2-DNA tetrasome on 147-bp 601 DNA”, for which the Kd in data set [1] was determined as 940 nM; in data set [2], 29 nM.

Regarding “yNap1_IF1 (G225D, S237D, T244D, D246R) (from UniProt P25293 1-417) (natural protein)”, the stoichiometry N was 2 in data set [3]; 2 and 4 in data set [4].

The values above are taken from article PMC4931181.
